Source: article PMC4627082, “MCM ring hexamerization is a prerequisite for DNA-binding” (Nucleic Acids Research, 2015)

How the values were obtained:
[1] = molecular target: PfMCMN-WT (residues 1–256), amino-terminal domain of Pyrococcus furiosus MCM (Pyrococcus furiosus) (UniProt Q8U3I4); assay: AUC; sedimentation velocity at the highest PfMCMN-WT concentration (350 μM), co-interpreted with sedimentation equilibrium; 20°C, 20 mM HEPES pH 7.6, 200 mM NaCl, 5 mM β-mercaptoethanol
[2] = molecular target: PfMCMN-WT (residues 1–256), amino-terminal domain of Pyrococcus furiosus MCM (Pyrococcus furiosus) (UniProt Q8U3I4); assay: AUC; sedimentation velocity, 20°C, 50 000 rpm, 20 mM HEPES pH 7.6, 200 mM NaCl, 5 mM β-mercaptoethanol, interference and absorbance optics, c(s) distributions; isotherm of signal-average s-values fitted to monomer-hexamer self-association; some WT samples with 40-mer oligo-dT ssDNA (T40)
[3] = molecular target: PfMCMN-WT (residues 1–256), amino-terminal domain of Pyrococcus furiosus MCM (Pyrococcus furiosus) (UniProt Q8U3I4); assay: AUC; sedimentation equilibrium of apoproteins, 12-51 μM, 20°C, 20 mM HEPES pH 7.6, 200 mM NaCl, 5 mM β-mercaptoethanol, absorbance 280 nm; reversible monomer-hexamer (WT, hexamer to monomers) or monomer-pentamer (βT, pentamer to monomers) model; the constant is the protein concentration where half of the protein is monomeric
[4] = molecular target: the molecule itself; assay: SEC; final size-exclusion chromatography step of purification; elution volume compared with PfMCMN-WT
[5] = molecular target: the molecule itself; assay: AUC; sedimentation velocity, 20°C, 50 000 rpm, 20 mM HEPES pH 7.6, 200 mM NaCl, 5 mM β-mercaptoethanol, interference and absorbance optics, c(s) distributions; isotherm of signal-average s-values fitted to monomer-hexamer self-association; some WT samples with 40-mer oligo-dT ssDNA (T40)
[6] = molecular target: the molecule itself; assay: AUC; sedimentation equilibrium of apoproteins, 12-51 μM, 20°C, 20 mM HEPES pH 7.6, 200 mM NaCl, 5 mM β-mercaptoethanol, absorbance 280 nm; reversible monomer-hexamer (WT, hexamer to monomers) or monomer-pentamer (βT, pentamer to monomers) model; the constant is the protein concentration where half of the protein is monomeric

Row | Molecule | stoichiometry N [1] | Kd [2] | percent hexamer at 15 μM with T40 ssDNA [2] | percent hexamer at 38 μM with T40 ssDNA [2] | percent hexamer at 45 μM with T40 ssDNA [2] | percent hexamer at 128 μM with T40 ssDNA [2] | percent of protein in the hexameric fraction at 76 μM [2] | percent of protein in the hexameric fraction at 180 μM [2] | stoichiometry N [2] | Kd [3] | stoichiometry N [4] | stoichiometry N [5] | Kd [6]
1 | PfMCMN-WT (residues 1–256), amino-terminal domain of Pyrococcus furiosus MCM (from UniProt Q8U3I4 1-256) (domain or fragment) | 12 | 58 µM | 55% | 72% | 72% | 82% | 37% | 60% | 6 | 60 µM |  |  | 
2 | PfMCMN-βT (1–256; K233A; R234A; K236A) (domain or fragment, Pyrococcus furiosus, UniProt Q8U3I4 1-256, looked up, Minichromosome Maintenance (MCM) protein of Pyrococcus furiosus, N-terminal domain, residues 1-256, with three alanine mutations of the β-turn; Made by site-directed mutagenesis of the PfMCMN-WT SUMO-fusion construct; SUMO removed by Ulp1; also called β-turn triple mutant; pCF076.1) MDREEMIERFANFLREYTDEDGNPVYRGKITDLLTITPKRSVAIDWMHLNSFDSELAHEVIENPEEGISAAEDAIQIVLREDFQREDVGKIHARFYNLPETLMVKDIGAEHINKLIQVEGIVTRVGEIKPFVSVAVFVCKDCGHEMIVPQKPYESLEKVKKCEQCGSKNIELDVNKSSFVNFQSFRIQDRPETLKGGEMPRFIDGILLDDIVDVALPGDRVIVTGILRVVLEAAEATPIFRKILEVNHIEPVSKEI |  |  |  |  |  |  |  |  |  |  | ~3 | 5 | 8 µM
